Assay results taken from patent US20150344570A1 (published 2015).

Assays:
[1] = biological target: T1, FcγRIIIa extracellular domain with C-terminal His tag (human, UniProt P08637 17-208); experiment: SPR, binding relative to GpH7-A5/GpH7-B3/GpL16-k0 = 100
T1 construct: extracellular domain; also called 3a; FcgRIIIa
Procedure: (§1) The heterodimerized antibodies He Abs in which one of the H chains was introduced with an alteration were assayed for their binding activities to each activating FcγR and inhibitory FcγR according to the method described in Example 4. […] The activating FcγRs in FIGS. 26, 27, 28, and 29 are FcγRIa, FcγRIIa (R), FcγRIIa (H), and FcγRIIIa, respectively.
(§2) Analysis of interaction between objective antibody and the FcγR was carried out using Biacore T100 (GE Healthcare). HBS-EP+ (GE Healthcare) was used as the running buffer, and the measurement temperature was set to 25° C. Chips produced by immobilizing the antigen peptide by the amine coupling method to a Series S Sencor Chip CM5 (GE Healthcare), or alternatively, chips produced by allowing preliminarily biotinylated antigen peptides to interact with and immobilize onto a Series S Sensor Chip SA (certified) (GE Healthcare) were used. Antibodies of interest were captured onto an antigen peptide-immobilized chip, and allowed to interact to each FcγR diluted with running buffer. To regenerate and repeatedly use the chip, the antibodies captured on the chip were washed off by reacting 10 mM glycine-HCl, pH 1.5.

[2] = biological target: T2, FcγRIIb extracellular domain with C-terminal His tag (human, UniProt P31994 43-217); experiment: as above
T2 construct: extracellular domain; also called 2b; FcgRIIb
T2 sequence (looked up): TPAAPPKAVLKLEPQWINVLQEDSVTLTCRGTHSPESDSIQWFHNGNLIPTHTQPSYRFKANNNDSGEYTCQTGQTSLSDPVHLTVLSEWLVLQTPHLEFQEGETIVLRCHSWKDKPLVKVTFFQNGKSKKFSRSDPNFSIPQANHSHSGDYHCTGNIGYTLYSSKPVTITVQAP
Procedure: as §1, §2

FcγRIIIa = biological target: T3, FcγRIIIa (human, UniProt P08637 17-208); experiment: SPR (Biacore), relative binding
T3 construct: extracellular domain; also called FcgRIIIa; 3a

FcγRIIb = biological target: T4, FcγRIIb (human, UniProt P31994 43-217); experiment: SPR (Biacore), relative binding
T4 construct: extracellular domain; also called FcgRIIb; 2b
T4 sequence (looked up): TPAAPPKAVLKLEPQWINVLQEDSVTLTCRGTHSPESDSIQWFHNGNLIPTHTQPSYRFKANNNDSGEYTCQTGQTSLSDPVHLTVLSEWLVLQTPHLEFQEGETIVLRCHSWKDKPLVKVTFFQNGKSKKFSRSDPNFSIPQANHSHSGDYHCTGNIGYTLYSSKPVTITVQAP

T1 sequence (P08637 17-208): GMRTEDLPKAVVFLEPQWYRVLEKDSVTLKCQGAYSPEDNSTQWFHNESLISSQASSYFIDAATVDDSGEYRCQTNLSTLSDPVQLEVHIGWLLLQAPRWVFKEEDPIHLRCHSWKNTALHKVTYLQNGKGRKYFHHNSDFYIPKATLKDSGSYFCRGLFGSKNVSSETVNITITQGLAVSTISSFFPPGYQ
T3 sequence (P08637 17-208): as above

B1: GpH7-A5/GpH7-B3 variant L234_04F/GpL16-k0 (antibody, human IgG1, kappa)
heavy 1: not shown
heavy 2: not shown
light: DIVMTQSPLSLPVTPGEPASISCQASESLVHSNRNTYLHWYLQKPGQSPQLLIYKVSNRFSGVPDRFSGSGSGTDFTLKISRVEAEDVGVYYCSQNTHVPPTFGQGTKVEIERTVAAPSVFIFPPSDEQLKSGTASVVCLLNNFYPREAKVQWKVDNALQSGNSQESVTEQDSKDSTYSLSSTLTLSKADYEKHKVYACEVTHQGLSSPVTKSFNRGEC
notes: also called He Ab
For B1, which He/Con_3a [1] is on record?
The He/Con_3a was 118 % of control.

And the He/Con_2b [2]?
The He/Con_2b was 99.8 % of control.

B2: GpH7-A5/GpH7-B3 variant P331_16H/GpL16-k0 (antibody, human IgG1, kappa)
heavy 1: not shown
heavy 2: not shown
light: DIVMTQSPLSLPVTPGEPASISCQASESLVHSNRNTYLHWYLQKPGQSPQLLIYKVSNRFSGVPDRFSGSGSGTDFTLKISRVEAEDVGVYYCSQNTHVPPTFGQGTKVEIERTVAAPSVFIFPPSDEQLKSGTASVVCLLNNFYPREAKVQWKVDNALQSGNSQESVTEQDSKDSTYSLSSTLTLSKADYEKHKVYACEVTHQGLSSPVTKSFNRGEC
notes: mutation in the GpH7-B3 chain only; also called He Ab
With B2 as the binder, how does the He/Con_3a (FcγRIIIa) read?
The He/Con_3a was 80.2 % of GpH7-A5/GpH7-B3/GpL16-k0.

What about the He/Con_2b (FcγRIIb) of the same binder?
Its He/Con_2b is 116 % of GpH7-A5/GpH7-B3/GpL16-k0.

B3: GpH7-A5/GpH7-B3 variant T335_04F/GpL16-k0 (antibody, human IgG1, kappa)
heavy 1: not shown
heavy 2: not shown
light: DIVMTQSPLSLPVTPGEPASISCQASESLVHSNRNTYLHWYLQKPGQSPQLLIYKVSNRFSGVPDRFSGSGSGTDFTLKISRVEAEDVGVYYCSQNTHVPPTFGQGTKVEIERTVAAPSVFIFPPSDEQLKSGTASVVCLLNNFYPREAKVQWKVDNALQSGNSQESVTEQDSKDSTYSLSSTLTLSKADYEKHKVYACEVTHQGLSSPVTKSFNRGEC
notes: as for B2
B3 was tested. Which He/Con_3a (FcγRIIIa) did it give?
Its He/Con_3a is 96 % of GpH7-A5/GpH7-B3/GpL16-k0.

And the He/Con_2b (FcγRIIb)?
The He/Con_2b was 103 % of GpH7-A5/GpH7-B3/GpL16-k0.

B4: GpH7-A5/GpH7-B3 variant S337_07I/GpL16-k0 (antibody, human IgG1, kappa)
heavy 1: not shown
heavy 2: not shown
light: DIVMTQSPLSLPVTPGEPASISCQASESLVHSNRNTYLHWYLQKPGQSPQLLIYKVSNRFSGVPDRFSGSGSGTDFTLKISRVEAEDVGVYYCSQNTHVPPTFGQGTKVEIERTVAAPSVFIFPPSDEQLKSGTASVVCLLNNFYPREAKVQWKVDNALQSGNSQESVTEQDSKDSTYSLSSTLTLSKADYEKHKVYACEVTHQGLSSPVTKSFNRGEC
notes: as for B2
Which results are given for B4?
He/Con_3a (FcγRIIIa): 94.8 % of GpH7-A5/GpH7-B3/GpL16-k0; He/Con_2b (FcγRIIb): 104 % of GpH7-A5/GpH7-B3/GpL16-k0

B5: GpH7-A5/GpH7-B3 variant A330_07I/GpL16-k0 (antibody, human IgG1, kappa)
heavy 1: not shown
heavy 2: not shown
light: DIVMTQSPLSLPVTPGEPASISCQASESLVHSNRNTYLHWYLQKPGQSPQLLIYKVSNRFSGVPDRFSGSGSGTDFTLKISRVEAEDVGVYYCSQNTHVPPTFGQGTKVEIERTVAAPSVFIFPPSDEQLKSGTASVVCLLNNFYPREAKVQWKVDNALQSGNSQESVTEQDSKDSTYSLSSTLTLSKADYEKHKVYACEVTHQGLSSPVTKSFNRGEC
notes: also called He Ab
What does the source list for B5?
He/Con_3a [1]: 103 % of control; He/Con_2b [2]: 67.1 % of control

B6: GpH7-A5/GpH7-B3 variant T335_18N/GpL16-k0 (antibody, human IgG1, kappa)
heavy 1: not shown
heavy 2: not shown
light: DIVMTQSPLSLPVTPGEPASISCQASESLVHSNRNTYLHWYLQKPGQSPQLLIYKVSNRFSGVPDRFSGSGSGTDFTLKISRVEAEDVGVYYCSQNTHVPPTFGQGTKVEIERTVAAPSVFIFPPSDEQLKSGTASVVCLLNNFYPREAKVQWKVDNALQSGNSQESVTEQDSKDSTYSLSSTLTLSKADYEKHKVYACEVTHQGLSSPVTKSFNRGEC
notes: as for B2
Which He/Con_3a (FcγRIIIa) does the source give for B6 here?
Its He/Con_3a is 98.8 % of GpH7-A5/GpH7-B3/GpL16-k0.

What about the He/Con_2b (FcγRIIb) of the same binder?
The He/Con_2b was 102 % of GpH7-A5/GpH7-B3/GpL16-k0.

B7: GpH7-A5/GpH7-B3 variant A330_15Y/GpL16-k0 (antibody, human IgG1, kappa)
heavy 1: not shown
heavy 2: not shown
light: DIVMTQSPLSLPVTPGEPASISCQASESLVHSNRNTYLHWYLQKPGQSPQLLIYKVSNRFSGVPDRFSGSGSGTDFTLKISRVEAEDVGVYYCSQNTHVPPTFGQGTKVEIERTVAAPSVFIFPPSDEQLKSGTASVVCLLNNFYPREAKVQWKVDNALQSGNSQESVTEQDSKDSTYSLSSTLTLSKADYEKHKVYACEVTHQGLSSPVTKSFNRGEC
notes: also called He Ab
Which results are given for B7?
He/Con_3a [1]: 125 % of control; He/Con_2b [2]: 95 % of control

B8: GpH7-A5/GpH7-B3 variant S337_08L/GpL16-k0 (antibody, human IgG1, kappa)
heavy 1: not shown
heavy 2: not shown
light: DIVMTQSPLSLPVTPGEPASISCQASESLVHSNRNTYLHWYLQKPGQSPQLLIYKVSNRFSGVPDRFSGSGSGTDFTLKISRVEAEDVGVYYCSQNTHVPPTFGQGTKVEIERTVAAPSVFIFPPSDEQLKSGTASVVCLLNNFYPREAKVQWKVDNALQSGNSQESVTEQDSKDSTYSLSSTLTLSKADYEKHKVYACEVTHQGLSSPVTKSFNRGEC
notes: as for B2
What does the source list for B8?
He/Con_3a (FcγRIIIa): 96.9 % of GpH7-A5/GpH7-B3/GpL16-k0; He/Con_2b (FcγRIIb): 100 % of GpH7-A5/GpH7-B3/GpL16-k0

B9: GpH7-A5/GpH7-B3 variant A330_04F/GpL16-k0 (antibody, human IgG1, kappa)
heavy 1: not shown
heavy 2: not shown
light: DIVMTQSPLSLPVTPGEPASISCQASESLVHSNRNTYLHWYLQKPGQSPQLLIYKVSNRFSGVPDRFSGSGSGTDFTLKISRVEAEDVGVYYCSQNTHVPPTFGQGTKVEIERTVAAPSVFIFPPSDEQLKSGTASVVCLLNNFYPREAKVQWKVDNALQSGNSQESVTEQDSKDSTYSLSSTLTLSKADYEKHKVYACEVTHQGLSSPVTKSFNRGEC
notes: also called He Ab
B9 was tested. Which He/Con_3a [1] did it give?
Its He/Con_3a is 147 % of control.

What about the He/Con_2b [2] of the same binder?
Its He/Con_2b is 92.8 % of control.
